We go through three substances from publication PMC9993113, “Assay development and inhibition of the Mt-DprE2 essential reductase from Mycobacterium tuberculosis” (Microbiology, 2023).

In one data set the target is T1, Mt-DprE1 (Mycobacterium tuberculosis, UniProt P9WJF1).
T1 construct: N-terminal hexa-his tag
Description: resazurin-based DprE1 enzyme assay with GGPR substrate. In kind it is biochemical. (The colour change of resazurin is a common sign of viable cells or microbes.)

Data set [1] relates to CC(C)=CCC/C(C)=C/CC/C(C)=C/CC/C(C)=C/COP(=O)(O)O[C@@H]1O[C@H](CO)[C@@H](O)[C@H]1O. The experiment in a line: purified protein. The settings on record: FAD.
Data set [2] relates to NC(=O)C1=CN([C@@H]2O[C@H](COP(=O)(O)OP(=O)(O)OC[C@H]3O[C@@H](n4cnc5c(N)ncnc54)[C@H](OP(=O)(O)O)[C@@H]3O)[C@@H](O)[C@H]2O)C=CC1. The experiment in a line: purified protein. Conditions: varied: cofactor.
In data set [3] the test system is NC(=O)C1=CN([C@@H]2O[C@H](COP(=O)(O)OP(=O)(O)OC[C@H]3O[C@@H](n4cnc5c(N)ncnc54)[C@H](O)[C@@H]3O)[C@@H](O)[C@H]2O)C=CC1. Description: purified protein. The settings on record: varied: cofactor.

T1 sequence (P9WJF1 whole entry): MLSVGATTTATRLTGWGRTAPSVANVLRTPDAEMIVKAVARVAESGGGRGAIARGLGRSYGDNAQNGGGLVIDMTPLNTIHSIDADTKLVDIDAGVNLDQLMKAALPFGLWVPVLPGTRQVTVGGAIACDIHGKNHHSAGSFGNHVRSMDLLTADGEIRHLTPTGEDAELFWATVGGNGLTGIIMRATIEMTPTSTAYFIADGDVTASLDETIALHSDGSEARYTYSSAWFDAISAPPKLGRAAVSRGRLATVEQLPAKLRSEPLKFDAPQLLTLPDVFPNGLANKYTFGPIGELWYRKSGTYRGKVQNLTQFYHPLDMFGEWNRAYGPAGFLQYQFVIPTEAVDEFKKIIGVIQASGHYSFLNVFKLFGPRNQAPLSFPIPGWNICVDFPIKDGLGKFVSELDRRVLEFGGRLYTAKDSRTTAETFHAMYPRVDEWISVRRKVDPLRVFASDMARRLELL

Take BTZ: the IC50 on Mt-DprE1 amounted to 5.7 ± 0.5 µM.

As for “Mt-DprE1 (Mycobacterium tuberculosis H37Rv)”, in data set [1], the Michaelis constant (Km) amounted to 36.9 ± 0.7 µM and the Vmax worked out at 35.8 µM/min.

In the case of “Mt-DprE2 (Mycobacterium tuberculosis H37Rv)”, the Km in data set [2] is 34.6 ± 11.2 µM; in data set [3], 10.5 ± 5.6 µM. The Vmax in data set [2] is 11.2 µM/min; in data set [3], 14.3 µM/min.

One may read the IC50 as the midpoint of a concentration-inhibition curve. High values mean weaker potency in that assay, low ones greater potency in that assay. As a reminder, the Km is the substrate concentration at which the rate is half of its maximum. Usually Vmax stands for the rate approached at saturating substrate.
